Where a chain is given by its changes, count along the chain named. In names and notes the source's numbering stands. Where two headings read alike, the source gives them in different places. One block for each molecule: values may come before it.
Legend:
Assay in all cases: SPR
[1] = biological target: α subunit of Escherichia coli DNA polymerase III holoenzyme (E. coli) (UniProt P10443)
[2] = biological target: T1, α subunit of Escherichia coli DNA polymerase III holoenzyme (E. coli, UniProt P10443 1-1160)
[3] = biological target: T1, α subunit of Escherichia coli DNA …; remark: listed apart in the source
[4] = biological target: T1, α subunit of Escherichia coli DNA …; remark: listed apart in the source

Kd [1]: 6.7 µM
Molecule: τC16Δ7 (τC16 with a C-terminal deletion of seven residues) (from UniProt P06710 499-636) (domain or fragment)

Kd [2]: 3800 nM
B1: τCpep32 (synthetic 32-mer peptide of the C-terminus of τ) (peptide, UniProt P06710 612-643, looked up)
peptide: AQARESIIADNNIQTLRRFFDAELDEESIRPI

Kd [2]: > 10000 nM
B2: τC14 (folded core of Domain V of τ, residues 499–625) (domain or fragment, E. coli)
chain: MKALEHEKTPELAAKLAAEAIERDPWAAQVSQLSLPKLVEQVALNAWKEESDNAVCLHLRSSQRHLNNRGAQQKLAEALSMLKGSTVELTIVEDDNPAVRTPLEWRQAIYEEKLAQARESIIADNNIQ

Kd [3]: > 1000 nM
B3: bio-τC14 (biotinylated τC14) (domain or fragment, E. coli)
chain: B2 chain
modifications: biotinylated on the N-terminal biotin-tag

Kd [2]: > 10000 nM
B4: τC16Δ11 (τC16 with a C-terminal deletion of 11 residues) (domain or fragment, E. coli)
chain: MKALEHEKTPELAAKLAAEAIERDPWAAQVSQLSLPKLVEQVALNAWKEESDNAVCLHLRSSQRHLNNRGAQQKLAEALSMLKGSTVELTIVEDDNPAVRTPLEWRQAIYEEKLAQARESIIADNNIQTLRRFFD

Kd [2]: 0.13 nM
B5: τC16 (Domain V of the τ subunit of E. coli DNA polymerase III holoenzyme, residues 499–643) (domain or fragment)
chain: MKALEHEKTPELAAKLAAEAIERDPWAAQVSQLSLPKLVEQVALNAWKEESDNAVCLHLRSSQRHLNNRGAQQKLAEALSMLKGSTVELTIVEDDNPAVRTPLEWRQAIYEEKLAQARESIIADNNIQTLRRFFDAELDEESIRPI

Kd [3]: 0.265 nM
koff [3]: 0.000402 s⁻¹
kon [3]: 1.52e+06 M⁻¹ s⁻¹
Kd [4]: 0.264 nM
B6: bio-τC16 (N-terminally biotinylated τC16) (domain or fragment, E. coli)
chain: B5 chain
modifications: biotinylated on the N-terminal biotin-tag

Kd [2]: 3.8 nM
B7: τC16[D636G] (domain or fragment, E. coli)
chain: B5 chain with D139G

Kd [2]: 2.4 nM
B8: τC16[L635P] (domain or fragment, E. coli)
chain: B5 chain with L138P

Kd [2]: 160 nM
B9: τC16[S617P] (domain or fragment, E. coli)
chain: B5 chain with S120P

Kd [2]: 99 nM
B10: τC16[F631I] (domain or fragment, E. coli)
chain: B5 chain with F134I

Kd [2]: 0.98 nM
B11: τC16[I618T] (domain or fragment, E. coli)
chain: B5 chain with I121T

Kd [2]: 1500 nM
B12: τC16[L627P] (domain or fragment, E. coli)
chain: B5 chain with L130P
